According to the nanobody polyreactivity screen of Harvey et al. (2022):

Assay: yeast display, Sf9 membrane polyspecificity reagent, FACS + sequencing; frameworks hold sequencing errors
In short: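 Polyreactivity labels are assigned by the sorting gate from which each nanobody was recovered. The gates were low and high (top ~1%), set on anti-HA fluorescence for expression and streptavidin fluorescence for reagent binding. Before sorting, galactose-induced (36–48 hours) yeast display cells were stained for 1 hour at 4 °C with 10% biotinylated, detergent-solubilized Sf9 membrane reagent.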

Row | Sequence | polyreactivity (PSR sort gate)
1 | QVQLVESGGGLVQAGGSLRLSCAASGRTFYSNAMGWYRQAPGKERELVAAISSSGGRTFYADSVKGRFTISRDNAKNTVYLQMNSLKPEDTAVYYCAAVPGYPRDSLYNYWGQGTQVTVSS | high polyreactivity
2 | QVQLVESGGGLVQAGGSLRLSCAASGRIFVINAMGLYRQAPGKERELVADITWSGGSTYADSVKGRFTISRDTAKNTVYLQLNSLKPEDTAVYYCAAVYLRVDRYLQVYRYDYWGQGTQVTVSS | high polyreactivity
3 | QVQLVESGGGLVQAGGSLRLSCAASGRIFSGNAMGWYRQAPRKERELVAAISRGGSTDYADSVKGRFTISRDNAKNTVYLQMNSLKPEDTAVYYCSARVNGKRRRYDYWGQGTQVTVSS | high polyreactivity
4 | QVQLVESGGGLVQAGGSLRLSCAASGFIFKGYDMGWYRQAPGKEREMVAAITSGSTNYADSVKGRFTNSRDNAKNTVYLQMNSVKPEDTAVYYCNAELGRATLYPRVFIERGGYWGQGTQVNVSS | low polyreactivity
5 | QVQLVESGGGLVQAGGSLRLSCAASGNTFDVYAMGWYRQAPGKEREFVARISGRVGSTYYADSVKGRFTISRDNAKNTVYLQMNSLKPEDTAVYYCAARGRVKYVYGGFGYWGQGTQVTVSS | high polyreactivity
6 | QVQLVESGGGLVQAGGSLRLSCAASGSIFQGNAKGGYRQAPGKERELVAGISDGGSTYYADSVKGRFTISRDNAKNTVYLQMNSLKPEDTAVYYCAAESEQWYSYVLSYDWEYDYWGQGTQVTVSS | low polyreactivity
7 | QVQLVESGGGLVQAGGSLRLSCAASGSTFSRYAMGWYRQAPGKERELVAAISWGGNTYYADSVKGRFTISRDNAKNTVYLQMNSLKPEDTAVYYCNRYSKLYNTMDYWGQGPQVTVSS | high polyreactivity
8 | QVQLVESVGGLVQAGGSLRLSCAATGRTFAWYALGWYRQAPGKERELVAAISSGGSTYYADSVKGRFTISRDNAKNTVYLQMNSLKPEDTAVYYCAAEWHYIYAYDYWGQGTQVTVSS | low polyreactivity
9 | QVQLVESGGGLVQAGGSLRLSCAASGRISRCYVMGRYRHAPGTERELVAAITWNSGSTYYADSVKGRFTISRDNAKNTVYLQMNSLTPEDTAVYYCAGVLYSRYQQYDYWGQGTQVTVSS | high polyreactivity
10 | QVQLVESGGGLVQAGGSLRLSSAASGIICAIYAMGWYRQAPGKERELVAAITWRGGSTYYADSVKGRFTISRDNAKNSVYFQKNRLKPEDTAVYYCAAVTKSLYGYDYWGQGTQVNVSS | low polyreactivity
11 | QVQLVESGGGLVQAGGSLRLSCAASGSIFLVNARGWYRQAPAKERELVASITWRGGRTYYADSVKGRFTISRDNAKNTDYLQMNSLKPEDTAVYYCAARNYRTGERLRYDYWGQGTQVTVSS | low polyreactivity
12 | QVQLVESGGGLVQAGGSLRLSCAASGFTFAKNAMGWYRPAPGKERELVATISRSGGSTYYADSVKGRFTISRDNAKNTVYLQMNSLKPEDTAVYDCAADRSYGVLGNEGGYWGQGTQVTVSS | high polyreactivity
13 | QVQLVESGGGLVQAGGSLRLSCAASGIYYNAMGWYRQAPGKERELVAAITTGDRTNYADSVKGRFTISRDNAKNTVYLQMNCLKPEDTAVYYCNAVVERLSSTARDFAYDYWGQGTQVTVSS | low polyreactivity
14 | QVQLVESGGGLVQAGGSLRLSCAASGYTSSLNAMGWYRQAPGKERELVARITTDGTSTYYADSVKGRFTISRDNANNTVYLQMNSLKPEDTAVYYCAAEYSYVQFGFGYWGQGTQVTVSS | low polyreactivity
15 | QVQLVESGGGLVQAGGSLRLSCAASGNTFYANTMGWYRQARNERELVAAITSGTYADSVKGRFTISRDNAKNTVYLQMNSQKPEDTAVYYCAREESLYVTDPGPSKLDYWGQGTQVTVSS | low polyreactivity
16 | QGQLVESGGGLVQAGGRLRLSCAASGSTLWRYAMGWYRQAPRKERELVAGISRGGGSTYYADSVKGRFTISRDNAKNTVYLQMYSLKPEDTGVYYCATPVNQVRGAFDYWGQGTQVSVSS | low polyreactivity
17 | QVQLVESGGGLVQAGGSLRLSCAASGRTFYPYAMGWYRQAPGKEREFVAAITWTGDSTYYADSVKGRFTISRDNAKNTVYLQMNSLKPEDTAVYYCAADLSSSPYYYGYDYWGQGTQVTVSS | low polyreactivity
18 | QFQLVESGGGLFQAGGSLRLICAASGSNFGGNTMSWYRHAPGKERDLVAAISRSGTRTYYADSVKGRFTISRDTAKNTVYLQMKSLKPVATAVYYCNAKKVLPPPYDYWGQGTQVTVST | high polyreactivity
19 | HVQLQESAGGLVQAGGSLRLSCAASGNISYSRNMGWYRQAPGKERELVAAIDRGAITYYADSVKGRFTISRDNATNTVYLQIYSLKPEDTAVYYCAAEYHDRWDHRYWGQGTHVTVSS | high polyreactivity
20 | QVQLVESGGGLVQAGGSLRLSCAASGSTFTGYAMGWYRQAPGKERELVAAITRGGSTYYADSVKGRFTISRDNAKNTVYLQMNSLKPEDTAVYYCAAKPSSREPTGPRYYYWGQGTQVTVSS | high polyreactivity
21 | QVQLVESGGGLVQEGGSLRLSCAASGFIFRGNGMGWYRQAPGKERELVAAIDSTDSKNYADSVKGRFTISRDNAKNTVYLQMNSLKPEDTAVYYCAAGVSWYGPYDYLWFYAFDYWGQGTQVTVSS | low polyreactivity

Row | Sequence | polyreactivity (PSR sort gate)
22 | QVRLVESGGGLVQAGGSLRLSSAASGRIFNGNAMGWYRQAPGKERELVAAINRGGSTNYADSVKGRFTISRDNAKNTVYLQMNSLKPEDTAVYYCAAELLYATRWRRYSGYYDWGQGTQVTVSS | high polyreactivity
23 | QVQLVESGGGLVQAGGSLRLSCAATGSIFRGYAMGWYRQAPGKERELVAAITSGGSTNYADSVKGRFTISRDNAKNTVYLQMNSLKPEDTAVYYCAKDLALVAPLSDYWGQGTQVTVSW | low polyreactivity
24 | QVQLVESGGGLVQAGGSLRLSCAASGSTFQSYAMGWYRQAPGKERELVAAISTSDTDRTYYADSVKGRFTISRDNAKNTVYLQMNSLKPEDTAVYYCNAEGTYRPEYDSWGQGTQVTVSS | low polyreactivity
25 | QVQLVESGGGLDQAGGSLRLSCAASGITFGRNTMGWYRQAPGQERELVAAIDSGGNTYADSVKGRFTISRDNAKNTVYLQMNCLKPEDTAVYYCAVDGGEFSSYGYWGQGTQVTVSS | low polyreactivity
26 | QFQLVESGGGLVQAGGSLRLSCAASGRIFYYNAMGWYRQAPGKERELVAAITGGGSTNYADSVKGRFTISRDNAKNTVYLQMNSLKPEDTAVYYCAARHYPRNSWGYDYWGQGTQVTVSS | high polyreactivity
27 | QVQLVESGGGLVQAGGSLRLSCAASGSIFGYYVMGWYRQAPGKERELVAAISGSDSSTYYADSVKGRFTISRDNAKNTVYLQMNSLKPEDTAVYYCNADLRYYPVEFDYWGQGTQVTVSS | low polyreactivity
28 | QVQLVESGGGLVQAGGSLRLSCAASGSTFRVYAMGWYRPAPGKVRELVAAISGSGTSTYYADSVKGRFTISRDNAKNTVYLQMNSLKPEDTAVYYCATGKNYWRGYEYWGQGTQVTVSS | high polyreactivity
29 | QVQLVESGGGIVQAGGSLRLSCAASGRTFRPYAMGWYRQAPGKERELVAAITSGGSTYYADSVKGRFTISRDNAKNTVYLQMNSLKPEDTAVYYCNAKYYYQPPYDYWGQGTQVTVSS | low polyreactivity
30 | QVQLVESGGGLVQAGGSLRLSCAASGSTFFLYAMGCYRQAPGNERELVAAISWRGASTYYADSVNGSFTISRDNAKNSVYLQMNSLKPDDTAVYYCAADLLPLYDDWGQGTQVTVSS | high polyreactivity
31 | QVQLVESGGGLVQAGGSLRLSCAASGYTDYAMGWYRQAPGKERELVATITSGDNTNYADSVKGRFTISRDNAKNTVDLQMNSLKPEDTAVYYCAAEYGMHYGIDYWGQGTQVTVSS | low polyreactivity
32 | QVQLVESGGGLVQAGGSLRLSCAASGFTFYTNAMGLSRQAPGKERELVAAISQRGASTYYADSVKGRFTISRDNAKNTFYLEMTSLKPEDTAVYYCAASSRTHGSYYYWGQGTQVTVSS | high polyreactivity
33 | QVQLVESGGGLVQAGGSLRLSCAAPGSTFGRYAMGWYRQAPGKERELVAAISKSGGSTYYADSVKGRFTISRDNAKNTVYLQMNSLKPEDTAVYYCAATTTRYSYEYWGQGTQVTVSS | low polyreactivity
34 | QVQLVESGGGLVQAGGSLRLSCAASGIIFGYYARGWYRQAPGKARELVAAISRGGNTNYADSVKGRFTISRDNAKNTVYLQMNSLKPEDTAVYYCAADFWSRIKYFYAVDVDYWGQGTQVTVSS | low polyreactivity
35 | QVQLVESGGGLVQAGGSLRLSCAASGITFYFNTMGWYRQAPGKERELVASISGGSSTYYADSVKGRFTISRDNAKYTVYLQMNSLKPEDTAVYYCNAQGSLFRGWFDYDYWGQGTQVTVSS | low polyreactivity
36 | QVQLVESGGGLVQAGGSLRLSCAASGRTFYQNVMGWSRQAPGKERELVAAITWGGGSTYYADSVKGRFTISRDNAKNTVYLQMNSLKPEDTAVYYCNRTFRSRLPTSRGYDYWGQGTQVTVSS | low polyreactivity
37 | QVQLVESGGGLVQAGGSLRLSCAASGFIIRGNVMGWYRQAPGKERELVAAISGRGGSTYYADSVKGRFTISRDNAKNTVYLQMNSLKPEDTAVYYCNAAGLYNSRLDYWGQGTQVTVSS | high polyreactivity
38 | QVQLVESGGGLVQAGGSLRLSCAASGFIFSWYAMGWYRQAPGKERELVAAISRSGTRTYYADSVKGRFTISRDNAKNTVYLQMNSLKPEDTAVYYCAAAAKSWLFDYWGQGTQVTVSS | high polyreactivity
39 | QVQLVESGGGLVQAGGSLRLSCAASGSIFKRYAMGWYRQAPGKERELVAAISRRGASTYYADSVKGRFTISRDNAKNTVYLQMNSLKPEDTAVYYCNAYLPRQGPSGRPRSQYDSWGQGTQVTVSS | high polyreactivity
40 | QVQLVESGGGLVQAGGILRLSCAASGSIFRQYARGWYRQAPGKERAFVAAITRRGGSTRYADSVKGRFTISRDNAKNTVYLQMNSLKPEDSAVEYCAARGVPGLHRYYYWGQGTQVTVSS | high polyreactivity
41 | QVQLVESGGGLVQAGGSLRLTCAASGLTFGFNAMGWYRQAPGKERELVAAISSRGGSTYYADSVKGRFTISRDNAKNTVYLQMNSLKPEDTAVYYCAVRYYSPYGYWGQGTQVTVSS | low polyreactivity
